# Assay results taken from patent US20210061879A1.
# Assays:
# [1] = molecular target: HER2 on cancer cells (MCF7, SKBR3, BT474, SKOV3, OVCAR3) (human) (UniProt P04626); experiment: cell-based or functional assay
# [2] = molecular target: HER2 on cancer cells (MCF7, SKBR3, BT474, SKOV3, OVCAR3) (human) (UniProt P04626); experiment: flow cytometry on OVCAR3 cells; retelling of FIG. 16 with a different last digit (1436 there)
# [3] = molecular target: HER2 on cancer cells (MCF7, SKBR3, BT474, SKOV3, OVCAR3) (human) (UniProt P04626); experiment: flow cytometry, 100 nM memAb trastuzumab on MCF7 cells, secondary anti-kappa-647 (secondary alone: 338)
# [4] = molecular target: HER2 on cancer cells (MCF7, SKBR3, BT474, SKOV3, OVCAR3) (human) (UniProt P04626); experiment: flow cytometry, 100 nM memAb trastuzumab on BT474 cells, secondary anti-kappa-647 (secondary alone: 392)
# [5] = molecular target: HER2 on cancer cells (MCF7, SKBR3, BT474, SKOV3, OVCAR3) (human) (UniProt P04626); experiment: flow cytometry, 100 nM memAb trastuzumab on SKBR3 cells, secondary anti-kappa-647 (secondary alone: 330)
# [6] = molecular target: HER2 on cancer cells (MCF7, SKBR3, BT474, SKOV3, OVCAR3) (human) (UniProt P04626); experiment: flow cytometry, 100 nM memAb trastuzumab on SKOV3 cells, secondary anti-kappa-647 (secondary alone: 370)
# [7] = molecular target: HER2 on cancer cells (MCF7, SKBR3, BT474, SKOV3, OVCAR3) (human) (UniProt P04626); experiment: flow cytometry, 100 nM memAb trastuzumab on OVCAR3 cells, secondary anti-kappa-647 (secondary alone: 307)
substance,measurement,setting,value
meditope-enabled I83E trastuzumab IgG (antibody),"EC50 of Jurkat-NFAT-Luc meditope-CAR cell activation (luminescence), co-culture with BT474",[1],0.26 nM
same,"EC50 of Jurkat-NFAT-Luc meditope-CAR cell activation (luminescence), co-culture with MCF7",[1],0.42 nM
same,"EC50 of Jurkat-NFAT-Luc meditope-CAR cell activation (luminescence), co-culture with SKBR3",[1],0.83 nM
same,"EC50 of Jurkat-NFAT-Luc meditope-CAR cell activation (luminescence), co-culture with SKOV3",[1],0.35 nM
same,"IC50 of cancer cell viability, BT474 co-incubated with memAb trastuzumab and FabRack T cells, 3 days",[1],0.33 nM
same,"IC50 of cancer cell viability, MCF7 co-incubated with memAb trastuzumab and FabRack T cells, 3 days",[1],0.069 nM
same,"IC50 of cancer cell viability, SKBR3 co-incubated with memAb trastuzumab and FabRack T cells, 3 days",[1],0.11 nM
same,"IC50 of cancer cell viability, SKOV3 co-incubated with memAb trastuzumab and FabRack T cells, 3 days",[1],0.046 nM
same,MFI,[2],1440
same,median fluorescence intensity (MFI),[3],985
same,median fluorescence intensity (MFI),[4],31700
same,median fluorescence intensity (MFI),[5],34400
same,median fluorescence intensity (MFI),[6],43200
same,median fluorescence intensity (MFI),[7],1440
